According to US20250277020A1 (Boehringer Ingelheim, published 2025):
Changes are numbered by the printed parent chain.

B1: A35 (antibody, human IgG1, kappa, L234A L235A, V domains shown)
VH: EVQLVESGGGLVQPGGSLRLSCAASGFTFSDYYMAWVRQAPGKGLEWVANINYEGSRTDLLASLKSRFTISRDNAKNSVYLQMNSLRAEDTAVYYCARDTSRGSYFDVWGAGTTVTVSS
VL: VVMTQTPLSLSVSLGDQASISCKSSQSIVHYNENTYLEWYLQKPGQSPQLLIYKVSSRFSGVPDRFSGSGSGTDFTLKISRVEAEDLGVYYCFQGSHFPLTFGQGTKLEIKR
B2: A36 (antibody, human IgG1, kappa, L234A L235A, V domains shown)
VH: B1 VH with E54Y
VL: B1 VL
B3: A37 (antibody, human IgG1, kappa, L234A L235A, V domains shown)
VH: B1 VH with E54D, A62D
VL: B1 VL
B4: A41 (antibody, human IgG1, kappa, L234A L235A, V domains shown)
VH: B1 VH with A62E
VL: B1 VL with F59A
B5: A42 (antibody, human IgG1, kappa, L234A L235A, V domains shown)
VH: B1 VH with E54Y, A62E
VL: B1 VL with F59A
B6: A43 (antibody, human IgG1, kappa, L234A L235A, V domains shown)
VH: B1 VH
VL: B1 VL with F59A
B7: A44 (antibody, human IgG1, kappa, L234A L235A, V domains shown)
VH: B1 VH with E54Y
VL: B1 VL with F59A
B8: A45 (antibody, human IgG1, kappa, L234A L235A)
light: VVMTQTPLSLSVSLGDQASISCKSSQSIVHYNENTYLEWYLQKPGQSPQLLIYKVSSRASGVPDRFSGSGSGTDFTLKISRVEAEDLGVYYCFQGSHFPLTFGQGTKLEIKRTVAAPSVFIFPPSDEQLKSGTASVVCLLNNFYPREAKVQWKVDNALQSGNSQESVTEQDSKDSTYSLSSTLTLSKADYEKHKVYACEVTHQGLSSPVTKSFNRGEC
heavy: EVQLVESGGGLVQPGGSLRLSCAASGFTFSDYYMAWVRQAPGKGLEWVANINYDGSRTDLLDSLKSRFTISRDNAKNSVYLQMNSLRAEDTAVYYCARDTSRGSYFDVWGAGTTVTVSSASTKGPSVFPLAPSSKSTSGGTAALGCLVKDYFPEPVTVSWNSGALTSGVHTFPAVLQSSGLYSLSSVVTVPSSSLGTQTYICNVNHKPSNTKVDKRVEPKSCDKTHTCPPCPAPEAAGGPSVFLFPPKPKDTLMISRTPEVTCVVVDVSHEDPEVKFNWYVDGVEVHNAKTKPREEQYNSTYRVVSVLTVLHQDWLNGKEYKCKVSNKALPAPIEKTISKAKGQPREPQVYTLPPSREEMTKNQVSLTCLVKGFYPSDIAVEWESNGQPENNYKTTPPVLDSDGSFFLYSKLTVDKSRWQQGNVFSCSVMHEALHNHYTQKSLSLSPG
B9: A46 (antibody, human IgG1, kappa, L234A L235A, V domains shown)
VH: B1 VH with A62D
VL: B1 VL with F59A
B10: A47 (antibody, human IgG1, kappa, L234A L235A, V domains shown)
VH: B1 VH with E54D, A62E
VL: B1 VL with F59A
B11: A48 (antibody, human IgG1, kappa, L234A L235A)
light: B8 light
heavy: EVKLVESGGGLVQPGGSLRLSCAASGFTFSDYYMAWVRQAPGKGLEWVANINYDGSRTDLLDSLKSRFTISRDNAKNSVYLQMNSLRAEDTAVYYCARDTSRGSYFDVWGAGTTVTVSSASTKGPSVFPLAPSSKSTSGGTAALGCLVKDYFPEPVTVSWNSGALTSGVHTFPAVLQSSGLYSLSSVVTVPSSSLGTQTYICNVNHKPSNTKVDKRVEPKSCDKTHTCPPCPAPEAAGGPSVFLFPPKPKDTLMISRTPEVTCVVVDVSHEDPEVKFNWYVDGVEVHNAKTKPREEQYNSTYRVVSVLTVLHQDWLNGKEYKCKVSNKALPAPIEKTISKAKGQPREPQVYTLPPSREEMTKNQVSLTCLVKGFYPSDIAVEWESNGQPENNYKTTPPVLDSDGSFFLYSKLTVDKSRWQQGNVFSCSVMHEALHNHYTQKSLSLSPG
B12: A49 (antibody, human IgG1, kappa, L234A L235A, V domains shown)
VH: B1 VH with A62E
VL: B1 VL with S11P, K23R, S57N
B13: A50 (antibody, human IgG1, kappa, L234A L235A, V domains shown)
VH: B1 VH with E54Y, A62E
VL: B1 VL with S11P, K23R, S57N
B14: A51 (antibody, human IgG1, kappa, L234A L235A, V domains shown)
VH: B1 VH
VL: B1 VL with S11P, K23R, S57N
B15: A52 (antibody, human IgG1, kappa, L234A L235A, V domains shown)
VH: B1 VH with E54Y
VL: B1 VL with S11P, K23R, S57N
B16: A53 (antibody, human IgG1, kappa, L234A L235A)
light: B8 light with S11P, K23R, S57N, A59F
heavy: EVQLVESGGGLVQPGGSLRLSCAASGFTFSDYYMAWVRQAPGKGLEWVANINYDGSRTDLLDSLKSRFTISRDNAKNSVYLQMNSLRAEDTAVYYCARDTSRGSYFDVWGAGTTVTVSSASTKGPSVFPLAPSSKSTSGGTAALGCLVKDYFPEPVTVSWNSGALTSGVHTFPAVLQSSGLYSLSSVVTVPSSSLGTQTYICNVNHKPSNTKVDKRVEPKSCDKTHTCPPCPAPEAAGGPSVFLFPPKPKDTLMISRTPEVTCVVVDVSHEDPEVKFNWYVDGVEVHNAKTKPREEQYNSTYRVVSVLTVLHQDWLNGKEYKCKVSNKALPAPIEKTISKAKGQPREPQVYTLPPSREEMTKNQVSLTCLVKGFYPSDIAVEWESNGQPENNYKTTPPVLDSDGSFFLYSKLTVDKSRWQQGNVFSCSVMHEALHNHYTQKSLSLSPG
B17: A54 (antibody, human IgG1, kappa, L234A L235A, V domains shown)
VH: B1 VH with A62D
VL: B1 VL with S11P, K23R, S57N
B18: A55 (antibody, human IgG1, kappa, L234A L235A, V domains shown)
VH: B1 VH with E54D, A62E
VL: B1 VL with S11P, K23R, S57N
B19: A56 (antibody, human IgG1, kappa, L234A L235A)
light: B8 light with S11P, K23R, S57N, A59F
heavy: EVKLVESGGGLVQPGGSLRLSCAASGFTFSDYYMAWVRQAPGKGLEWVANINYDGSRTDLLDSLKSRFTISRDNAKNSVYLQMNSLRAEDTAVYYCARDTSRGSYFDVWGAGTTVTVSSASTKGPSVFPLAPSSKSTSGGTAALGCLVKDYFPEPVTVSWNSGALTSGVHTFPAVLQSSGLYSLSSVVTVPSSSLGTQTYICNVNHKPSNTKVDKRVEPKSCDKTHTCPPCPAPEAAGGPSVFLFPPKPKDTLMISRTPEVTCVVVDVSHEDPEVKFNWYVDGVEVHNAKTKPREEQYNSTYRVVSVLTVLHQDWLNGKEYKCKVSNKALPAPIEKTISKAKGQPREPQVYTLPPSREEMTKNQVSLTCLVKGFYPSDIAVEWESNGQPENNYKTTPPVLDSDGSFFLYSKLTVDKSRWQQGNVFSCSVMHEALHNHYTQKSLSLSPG
B20: A57 (antibody, human IgG1, kappa, L234A L235A, V domains shown)
VH: B1 VH with A62E
VL: B1 VL with S11P, K23R, E33A, S57N
B21: A58 (antibody, human IgG1, kappa, L234A L235A, V domains shown)
VH: B1 VH with E54Y, A62E
VL: B1 VL with S11P, K23R, E33A, S57N
B22: A59 (antibody, human IgG1, kappa, L234A L235A, V domains shown)
VH: B1 VH
VL: B1 VL with S11P, K23R, E33A, S57N
B23: A60 (antibody, human IgG1, kappa, L234A L235A, V domains shown)
VH: B1 VH with E54Y
VL: B1 VL with S11P, K23R, E33A, S57N
B24: A61 (antibody, human IgG1, kappa, L234A L235A)
light: B8 light with S11P, K23R, E33A, S57N, A59F
heavy: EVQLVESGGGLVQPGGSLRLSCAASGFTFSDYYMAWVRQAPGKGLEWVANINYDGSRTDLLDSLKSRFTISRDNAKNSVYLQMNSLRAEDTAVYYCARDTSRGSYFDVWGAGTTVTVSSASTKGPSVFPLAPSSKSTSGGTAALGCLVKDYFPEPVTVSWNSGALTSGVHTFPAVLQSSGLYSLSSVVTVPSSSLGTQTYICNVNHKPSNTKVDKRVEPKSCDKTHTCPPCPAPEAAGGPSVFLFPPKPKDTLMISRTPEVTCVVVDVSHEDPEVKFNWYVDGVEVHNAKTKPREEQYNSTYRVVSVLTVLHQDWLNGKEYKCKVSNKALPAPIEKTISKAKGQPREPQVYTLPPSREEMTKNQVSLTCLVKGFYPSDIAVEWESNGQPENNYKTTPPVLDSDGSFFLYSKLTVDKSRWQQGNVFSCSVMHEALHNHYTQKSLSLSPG
B25: A62 (antibody, human IgG1, kappa, L234A L235A, V domains shown)
VH: B1 VH with A62D
VL: B1 VL with S11P, K23R, E33A, S57N
B26: A63 (antibody, human IgG1, kappa, L234A L235A, V domains shown)
VH: B1 VH with E54D, A62E
VL: B1 VL with S11P, K23R, E33A, S57N
B27: A64 (antibody, human IgG1, kappa, L234A L235A)
light: B8 light with S11P, K23R, E33A, S57N, A59F
heavy: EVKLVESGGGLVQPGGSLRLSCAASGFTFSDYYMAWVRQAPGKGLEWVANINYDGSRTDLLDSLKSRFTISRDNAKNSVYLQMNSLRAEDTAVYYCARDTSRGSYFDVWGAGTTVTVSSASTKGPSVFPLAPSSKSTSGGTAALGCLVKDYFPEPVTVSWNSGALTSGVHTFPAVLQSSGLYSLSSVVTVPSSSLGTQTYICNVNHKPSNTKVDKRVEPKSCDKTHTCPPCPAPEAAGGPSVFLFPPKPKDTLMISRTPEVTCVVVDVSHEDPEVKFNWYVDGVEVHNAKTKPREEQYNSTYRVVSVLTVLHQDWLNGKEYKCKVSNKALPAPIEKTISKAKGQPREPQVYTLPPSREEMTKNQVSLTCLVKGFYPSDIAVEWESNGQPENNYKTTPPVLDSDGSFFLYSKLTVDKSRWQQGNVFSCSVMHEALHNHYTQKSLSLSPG
B28: A65 (antibody, human IgG1, kappa, L234A L235A, V domains shown)
VH: B1 VH with A62E
VL: B1 VL with S11P, K23R, E33T, S57N
B29: A66 (antibody, human IgG1, kappa, L234A L235A, V domains shown)
VH: B1 VH with E54Y, A62E
VL: B1 VL with S11P, K23R, E33T, S57N
B30: A67 (antibody, human IgG1, kappa, L234A L235A, V domains shown)
VH: B1 VH
VL: B1 VL with S11P, K23R, E33T, S57N
B31: A68 (antibody, human IgG1, kappa, L234A L235A, V domains shown)
VH: B1 VH with E54Y
VL: B1 VL with S11P, K23R, E33T, S57N

These binders were tested against T1, Full-length human CTGF (human, UniProt P29279 27-349) (assay: SPR, full length CTGF).
T1 construct: Corresponds to NCBI NP_001892.1 with the signal peptide omitted; purchased from R&D Systems; also called hCTGF full length; full length CTGF
T1 sequence: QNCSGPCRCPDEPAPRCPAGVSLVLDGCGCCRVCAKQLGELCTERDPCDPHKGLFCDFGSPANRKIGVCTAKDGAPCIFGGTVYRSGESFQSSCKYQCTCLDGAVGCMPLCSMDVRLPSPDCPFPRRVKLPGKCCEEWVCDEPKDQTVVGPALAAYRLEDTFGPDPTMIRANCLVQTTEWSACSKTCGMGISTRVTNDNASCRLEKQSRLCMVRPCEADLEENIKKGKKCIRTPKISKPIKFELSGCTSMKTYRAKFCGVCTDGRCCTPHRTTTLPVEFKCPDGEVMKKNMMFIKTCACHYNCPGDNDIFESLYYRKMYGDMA
B1: no binding.
B2: no binding.
B3: no binding.
B4 showed a Kd of 0.19 nM.
With B5 the Kd was 0.15 nM.
B6 gave a Kd of 0.15 nM.
B7 showed a Kd of 0.16 nM.
B8: no binding.
B9 gave a Kd of 0.2 nM.
B10: no binding.
In the case of B11, the Kd is reported as 0.23 nM.
B12 showed a Kd of 0.3 nM.
B13 was tested, and the Kd was 0.26 nM.
For B14, the Kd was 0.25 nM.
In the case of B15, the Kd is reported as 0.27 nM.
Work on B16 yielded a Kd of 0.36 nM.
In the case of B17, the Kd is reported as 0.31 nM.
For B18, the Kd was 0.35 nM.
In the case of B19, the Kd is reported as 0.31 nM.
Work on B20 yielded a Kd of 0.35 nM.
B21 was tested, and the Kd was 0.3 nM.
B22 gave a Kd of 0.27 nM.
Binder B23 has a Kd of 0.3 nM.
In the case of B24, the Kd is reported as 0.35 nM.
Binder B25 has a Kd of 0.35 nM.
B26 showed a Kd of 0.34 nM.
In the case of B27, the Kd is reported as 0.32 nM.
Work on B28 yielded a Kd of 0.27 nM.
Work on B29 yielded a Kd of 0.25 nM.
Binder B30 has a Kd of 0.24 nM.
B31 showed a Kd of 0.15 nM.
